For one molecule, Kd results are on record in EP3912994A1 (Université de Strasbourg, dated 2021).

In this experiment the target is T1, fibronectin type III domains 1-5 of human tenascin-C (human, UniProt P24821 625-1075).
T1 construct: range 625-1075; Expressed in HEK293 cells, purified on Streptactin XT; coated on the ELISA plate; also called TN1-5
T1 sequence (looked up): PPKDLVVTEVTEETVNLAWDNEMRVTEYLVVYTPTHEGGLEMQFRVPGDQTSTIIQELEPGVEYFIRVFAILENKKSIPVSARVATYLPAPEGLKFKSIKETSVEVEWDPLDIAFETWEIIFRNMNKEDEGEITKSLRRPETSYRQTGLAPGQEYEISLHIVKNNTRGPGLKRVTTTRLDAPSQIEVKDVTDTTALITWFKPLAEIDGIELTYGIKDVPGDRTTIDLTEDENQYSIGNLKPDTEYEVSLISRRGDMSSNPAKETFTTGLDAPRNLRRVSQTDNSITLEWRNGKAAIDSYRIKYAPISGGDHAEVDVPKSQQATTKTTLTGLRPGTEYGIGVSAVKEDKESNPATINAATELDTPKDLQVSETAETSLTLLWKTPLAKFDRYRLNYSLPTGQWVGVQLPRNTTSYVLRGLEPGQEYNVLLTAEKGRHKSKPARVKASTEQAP
As to the kind of experiment: ELISA, TN1-5 coated, biotinylated FN4-6 titrated 1 nM to 1 µM. In general terms: ELISA stands for enzyme-linked immunosorbent assay.

B1: fibronectin type III domains 4-6 of human fibronectin (double Strep-tagged) (other, UniProt P02751 909-1175, looked up, not shown: small tags and cut ends)
chain: SPRDLQFVEVTDVKVTIMWTPPESAVTGYRVDVIPVNLPGEHGQRLPISRNTFAEVTGLSPGVTYYFKVFAVSHGRESKPLTAQQTTKLDAPTNLQFVNETDSTVLVRWTPPRAQITGYRLTVGLTRRGQPRQYNVGPSVSKYPLRNLQPASEYTVSLVAIKGNQESPKATGVFTTLQPGSSIPPYNTEVTETTIVITWTPAPRIGFKLGVRPSQGGEAPREVTSDSGSIVVSGLTPGVEYVYTIQVLRDGQERDAPIVNKVVTPLS
notes: range 909-1175; Biotinylated with Biotin-Ahx-NHS for the ELISA on TN1-5; also called FN4-6
In the case of B1, binding was characterised by a dissociation constant (Kd) of 44 nM.
